Data as given in the nanobody polyreactivity screen of Harvey et al. (2022).

assay: yeast display, Sf9 membrane polyspecificity reagent, FACS + sequencing; frameworks hold sequencing errors
Procedure, shortened: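 Nanobodies from a synthetic yeast display library (Saccharomyces cerevisiae BJ5465), induced 36–48 hours with galactose, were stained 1 hour at 4 °C with 10% biotinylated, detergent-solubilized Sf9 membrane reagent, enriched on streptavidin microbeads, then FACS-sorted. Anti-HA (expression) and streptavidin (reagent binding) fluorescence set low and high (top ~1%) gates. Polyreactivity labels come from the gate of origin. Genes were colony-PCR amplified, MiSeq 2 × 250 sequenced and filtered by CDR length.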

Sequence | polyreactivity (PSR sort gate)
QVQLVESGGGLVQAGGSLRLSCPASGYTFYKNAMGWYRQPPGKERELVAAISYSGGRTYYADSVKGRFTISRDNAKNTVYLQMNSLKPEDTAVYYCAKATRVITDDGSYGYWGQGSQVTVSS | high polyreactivity
QVQLGESGGGLVEAGGSLRLSCAASGSTFNRYAMGWYRQAPGKERELVAAISFSGGRTYYADSVKGRFTISRDNAKNTVYLQMNSLKPEDTAVYYCAKVVYGYFTRAYTYNYWGHGTQVTVSS | high polyreactivity
QVQLVESGGGLVQAGGSLRLSCAASGIIFGLNAMGWYRQAPGKERELVAAIRRRGGSTYYADSVKGRYTISRDNAKTTVYLQMNSLKPEDTAVYYCAAAGGRYSRAAYDYWGQGTQVTVSS | low polyreactivity
QVQLVESGGGLVQAGGSLRLSCAASGSTFTTYAMRWYRQAPGKERELLAAITRGGGRTYYSDSVKGRFTISRDYAKNTVYLLMNSLKPEDTAVYYCNAGRSNSPCGRPYDYWGQGTQVTVSS | high polyreactivity
QVQLVESGGGLVQAGGSLRLSCAASGFTYYAMGWYRQAPGKERELVAAITRGGSTYYADSVKGRFTISRDNAKNTVYLQMNSLKPEDTAVYYCAVLQRAARLGYNYWGQGTQVTVSS | high polyreactivity
QVHLVDSGGGLVQAGGSLSLRCAASRRSFVPYAMGWYSQGPGKEREFLADITWSTCTSTYYADSEKGRFTISRDNAKNTVYLHMNSLKPEDTAVYYCAVDIWWPNWYYIYWGQGTQVTLSS | low polyreactivity
KVQLVESGGGLVQAGGSLRLSCAASGLTFSFYAMGWYRQAPGKERELVAAITYSGDSTYYADSVKGRFTISRDNAKNTVYLQLNSLKPEDTAVYYCAAYVYQTPHSLHIYEYWGQGTQVTVSS | low polyreactivity
QVPLVESGVGLVQAGGSLRLSCAASGYTFYSYAMGWYRQAPGKEREFVAAIRTGGGTNYADSVKGRFTISRDNAKNTVYLQMNSLKPEDTAVYYCAARYYSQKSYIGFRPGYEYWGQGTQVTVSS | low polyreactivity
QVQLEESGGGLVQAGGSLRLSCAASGSTFAPNAMGWYRAAPGKEMELVASIRRGGSTHYADSVKGRFTISRDNAKNTVYFQMNSLQPEDTAVYYCAAEFRDVSSNGYDFLGQGTQVTVSS | low polyreactivity
QVHLVESGGGLVQAGGSLRLSCAGSGRTFRYYAMGWYGQAPGKERELVAAISVRTGSTSDADSVKGRFTISRDNAKNTVYLQMNSLNPEDTAVYYCAATSRYFQPPGYGGGRIGYGYWGQGTQVTVSS | high polyreactivity
QVQLVESGGGLVPAGGSLRLSCAASGLTFTTYAMGWYRQAPGKERELVAANSNSGATTYYADSVKGRFTISRDNAKNTVYLQMNSLKREETAVYYCAATSYTATWRYYYWGQGTQVTVSS | high polyreactivity
QVQLVESGGGLVQAGGSLRLTCAASGRIFIYNTMGWYRQAPGTERELVATISSGGRTYYADSVKGRFTISRDNAKNTVYFQMNSLKPEDTAVYYCNARRRYYSVWRGWDNELDYWGQGTQVTVSS | high polyreactivity
QVQLVESGGGLVQAGGSLRLSCAASGLTFSLNAMGWYRQAPGKERELVAAISFSGGSTYYADSVKGRFTISRDNAKNTVYLQMNSLKPEDTAVYYCAVRKRVGRGRYGYWGQGTQVTVSS | high polyreactivity
QVQLVESGRGLVQAGGSLRLSCAASGIIFPFYAMGCYRQAPGKERELVAAITSGDDTYYADSVKGRFTISRDNAKNTVYLQMNSLKPEDTAVYYCNKRLYIAGYWPQLYYIMDYWGQGTQVTVSS | low polyreactivity
QVQLVESGGGLLQAGGSLRLSCAASGSIFGYYAMGWYRQAPGKERELVAAISRSGGSTYYADSVKGRFTISRDNAKNTVYLQMNSLKPEDTAVYYCAADDYPYGNYYWGQGTQVTVSS | high polyreactivity
QVQLVESGGGLVQAGGSLRLSCAASGFIFFRYAMGWYRQAPGKERELVAAISTRTGITYYADSVKGRFTISRDNAKNTVYLQMNSLKPEDTAVYYCNVLRSHSLYPFWKYDYWGQGTQVTVSS | high polyreactivity

Sequence | polyreactivity (PSR sort gate)
QVQLVESGGGLVQAGGSLRLSCAASGRIFNVYAMGWYRQAPGKERELVASINSAGSTYYADSVKGRFTISRDNAKNTVYLQMNSLKPEDTAVYYCAADSYSVYYYTYDSWGQGTQVTVSS | low polyreactivity
QVQLVESGGGLVQAGGSLRLSCAASGSTFSYYAMGWYRQAPGKEWEFVAAISRSGGRTYYADSVKGRFTISRDNAKNTVYLQMNSLKPEDTAVYYCATVYYYDFSRTHPWPGDYWGQGTQVTVSS | high polyreactivity
QVQLVESGGGLVQAGGSLRLSCAASGLTFVNYAMGWYRQAPGKERELVATISKTGGSTYYADSVKGRFTISRDNAKNTVYLQMNSLKPEDTAVYYCAVDAFYYKWYDYWGQGTQVTVSS | high polyreactivity
QVQLVESGGGLVQAGGSLRLSCAASGSIFGDNAMGWYRQAPGKERELVAAITTGASRTYYADSVKGRFTISRDNAKNTVYLQMNSLKPEDTAVYYCNASDPSWREYDYWGQGTQVIVSS | low polyreactivity
QVQLVESGGGLVQAGGSLRLSCAASGSTFYANAMGWYRQAPGKERELVAAIDSGGTTTYADSVKGRFTISRDNAKNTVYLQMNSLKPEDTAVYYCAADQYWYFWYDYWGQGTQVTVSS | low polyreactivity
QVQLVESWGGLVQAGGSLRLSCAASGSIFPRNAMGWYRQAPGKERELVATISSGGSTYYADSVKGRFTISRDNAKNTVYLQMNSLKPEDTAVYYCAAEYVVRAIDVDYDYWGQGTQVTVSS | high polyreactivity
QVQLVESGGGLVQAGGSLRLSCAASGSIFVRNAKGCYRQAPWKERELVAAITATGGRTYYADSVKGRFTISRDNAKNTVYLQMNSLKPEDTAVYYCAAYYPRSGYDYWGQGTQVNVSS | high polyreactivity
QVQLVESGGGLVQAGGSLRLSCAATGSTRYYAMGWYRHAPGKERELVASIASIGGSTSYADSVKGRFTISRDNAKNTVYLQMNSLKPEDTAVYYCATRSLVYSARAAGLIQFDHWGQGTQVTVSS | low polyreactivity
QVQLVESGGGLVQAGGSLRLTCAASGRIFSFNAMVSYRKATGKERELVATIRTDGTTNYADSVKGRFTISRDNAKNTVYLQMNSMKPEDTAVYYCATDSGWSTYDFWGQGTQVTVSS | high polyreactivity
QVQLVESVGGLVQAGGSLRLSCAASGVIFYFYTMGWSRQAPGKERELVAGITWSGDSTYYADSVKGRFTISRDNAKNTVYLQMNSLTPEDTAVYYCAAGFDFGTRVSKGYDYWGHGTQVTVSS | low polyreactivity
QVQLVESGGGLVQAGGSLRLSCAASGFTFFYNAMGWYSQAPGKESELVASITVSTSGTDYADSVKGRFTISRDNAKNTVYLQMNSLKPEDTAVYYCATDLVFVYSDLQDTAYYWGQGTQVTVSS | low polyreactivity
QVQLVESRGGLVQAGGSLRLSCAASGFIFLPYAMGWYRQAPGKERELVATINSGDSTYADSVKGRFTISRDNAKNTVYLQMNSLKPEDTAVNYCNAYWLVVPVDLDYWGQGTQVTVSS | low polyreactivity
QVQLVESGGGLVQAGGSLRLSCAASGSIFPKYAMGWDRQAPGKERELVATITWSGSSTYYADSVKGRFTISRDNAKNTVYLQMNSLKPEDTAVYYCAATGWSSFYYRFDYWGQGTQVTVSS | low polyreactivity
QVQLVESGGGLVQAGGSLRLSCAASGSIFLAYDMGWYRQAPGKERELVAAISYTGGSTNYADSVKGRFTISRDNAKNTVYLQMNSLKPEDTAVYYCNTAGDLWIDYGYWGQGTQVTVSS | low polyreactivity
QVQLVESGGGLVQAGGSLRLSCAASGSTRYWYAMGWYRQAPGKEREFFAGISIGGRTNYADSVKGRFTISRDNAKNTVYLQMNSLKPEDTAVYYCNAENTYVGSRYRPYNYWGQGTLVTVSS | low polyreactivity
